In the experiment the target is T1, HveA(200t) (UniProt Q92956 39-200, limits assumed).
T1 construct: Immobilized on microtiter wells in all ELISAs; also called soluble form of HveA; HVEM; not shown: C-terminal histidine tag
T1 sequence (looked up): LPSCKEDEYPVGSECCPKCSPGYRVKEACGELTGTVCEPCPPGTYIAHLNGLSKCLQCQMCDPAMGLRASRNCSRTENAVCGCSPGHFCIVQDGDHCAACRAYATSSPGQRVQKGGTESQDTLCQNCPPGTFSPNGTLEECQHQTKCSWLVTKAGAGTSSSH
Briefly: inferred from competition ELISA on immobilized HveA. In general terms: An ELISA detects its analyte on a solid surface through an enzyme-linked reagent.

Ends that are not written are not given here.

B1: BP-2 (3, 9 Ala) (peptide)
peptide: GSADGFRVAYMH
modifications: not fully specified (C-terminus)
notes: Linear analog of BP-2 in which the two cysteine residues are replaced by alanine; also called linear form of BP-2
As to B1, the binding result is on record as “no binding”.

(Values after US20020119165A1 (University of Pennsylvania, published 2002).)
